Experimental findings from patent US6376210B1, “Methods and compositions for assaying analytes” (General Atomics, priority 1999, dated 2002) are described below.

The subject of this data set is human SAH hydrolase. Kind of data set: SAH hydrolase activity assay, hydrolytic direction (kinetic constants for SAH). The data set is classed as biochemical. The note with it: substrate SAH; wild type vs mutant SAH hydrolase. The protocol: The cell-free extracts from colonies that inducibly overexpressed mutant SAH hydrolase proteins were chromatographed on a monoQ column (HR5/5) equipped with FPLC system. Proteins were eluted with a linear gradient of NaCl from 0 to 1 M in 10 mM sodium phosphate buffer, pH 7.0 over 35 min. The major protein peak that eluted at the same or close retention time as that of the wild type SAH hydrolase was collected. An aliquot collected mutant SAH hydrolase (1-10 μg) was incubated with [^3H]SAH (10 mCi/mmole, 200 μM) and 30 μM of 5, 5′-dithiobis (2-nitrobenzoic acid) (DTNB) at room temperature for 5-30 min.
The reaction solution was filtered through a membrane of molecular weight cut-off at 30,000 by centrifugation. The filtrate was measured at 412 nm for Hcy formation (enzyme activity) and the [^3H] radioactivity on the membrane was measured by scintillation counting after membrane washing with 1 ml of 50 mM phosphate buffer, pH 7.0.
The mutant hydrolases that show high radioactivity on the membrane and low O.D. at 412 nm of the filtrate relative to the wild type enzyme were selected as candidates for further characterization including determination of Km or Kd and binding energy (ΔG).
The assay of SAH hydrolase activity in the hydrolytic direction was performed as described in Yuan et al., J. Biol Chem., 271:28008-28016, 1996). The assay measures the hydrolysis of SAH into Ado and Hcy. The reaction product Hcy was derivatized by thiol specific reagent DTNB for colometric determination at 412 nm. The assay for SAH hydrolase in the synthetic direction was measured by the formation of SAH from substrate Ado and Hcy using HPLC (see, Yuan et al., J. Biol. Chem., 268:17030-17037 (1993). One unit of the enzyme activity was defined as the amount of enzyme that can hydrolyze or synthesize 1 μmole of SAH/min/mg.

B1: F302S: mutant human SAH hydrolase, Phe302 to Ser; substrate trapping enzyme (protein, UniProt P23526 2-432, looked up, variant F302S)
Adenosylhomocysteinase: SDKLPYKVADIGLAAWGRKALDIAENEMPGLMRMRERYSASKPLKGARIAGCLHMTVETAVLIETLVTLGAEVQWSSCNIFSTQDHAAAAIAKAGIPVYAWKGETDEEYLWCIEQTLYFKDGPLNMILDDGGDLTNLIHTKYPQLLPGIRGISEETTTGVHNLYKMMANGILKVPAINVNDSVTKSKFDNLYGCRESLIDGIKRATDVMIAGKVAVVAGYGDVGKGCAQALRGFGARVIITEIDPINALQAAMEGYEVTTMDEACQEGNIFVTTTGCIDIILGRHFEQMKDDAIVCNIGHSDVEIDVKWLNENAVEKVNIKPQVDRYRLKNGRRIILLAEGRLVNLGCAMGHPSFVMSNSFTNQVMAQIELWTHPDKYPVGVHFLPKKLDEAVAEAHLGKLNVKLTKLTEKQAQYLGMSCDGPFKPDHYRY
As usually defined, the Km is the substrate concentration at which the rate is half of its maximum. For B1, the “Kcat (SAH)” value is recorded as 0.1 S^−1 and the Km turned out to be 1 µM.

B2: wild type: wild type human placental SAH hydrolase (SEQ ID No. 1), recombinant from E. coli (protein, listed as Homo sapiens)
chain: MSDKLPYKVADIGLAAWGRKALDIAENEMPGLMRMRERYSASKPLKGARIAGCLHMTVETAVLIETLVTLGAEVQWSSCNIFSTQNHAAAAIAKAGIPVYAWKGETDEEYLWCIEQTLYFKDGPLNMILDDGGDLTNLIHTKYPQLLPGIRGISEETTTGVHNLYKMMANGILKVPAINVNDSVTKSKFDNLYGCRESLIDGIKRATDVMIAGKVAVVAGYGDVGKGCAQALRGFGARVIITEIDPINALQAAMEGYEVTTMDEACQEGNIFVTTTGCIDIILGRHFEQMKDDAIVCNIGHFDVEIDVKWLNENAVEKVNIKPQVDRYRLKNGRRIILLAEGRLVNLGCAMGHPSFVMSNSFTNQVMAQIELWTHPDKYPVGVHFLPKKLDEAVAEAHLGKLNVKLTKLTEKQAQYLGMSCDGPFKPDHYRY
modifications: Human S-adenosylhomocysteine hydrolase protein sequence
Consider B2, for which the “Kcat (SAH)” value is given as 3.8 S^−1 and the Km worked out at 7.9 µM.
